# From paper PMC8125140
# Columns and labels:
# [1] = biological target: γ2-GABAA receptor (endogenous) (rat (endogenous in hippocampal neurons)) (UniProt P18508)
# [2] = biological target: γ2-GABAA subunit fused with a superecliptic pHluorin (SEP) tag (UniProt P18508)
# [3] = biological target: γ2-GABAA subunit fused with a superecliptic pHluorin (SEP) tag (UniProt P18508); remark: listed apart in the source
# [4] = biological target: γ2-GABAA subunit fused with a superecliptic pHluorin (SEP) tag (UniProt P18508); remark: listed apart in the source
Substance,diffusion coefficient median of extrasynaptic D5Rs (D5R–YFP) after incubation with the disrupting peptide TATD5Ct (10 µM); control 7.42 10^−2 µm^2/s [1] [µm^2/s],explored area of extrasynaptic D5Rs (D5R–YFP) with the disrupting peptide TATD5Ct (10 µM); control 2.37 10^−2 µm^2 [1] [µm^2],"immobile fraction of extrasynaptic D5Rs (D5R–YFP, single nanoparticle tracking) with the disrupting peptide TATD5Ct (10 µM); not changed [1] [%]",diffusion coefficient median of SEP-γ2-GABAARs at excitatory synapses with the disrupting peptide TATD5Ct (10 µM); control 3.15 10^−2 µm^2/s; no change (p = 0.13) [2] [µm^2/s],explored area of SEP-γ2-GABAARs at excitatory synapses with the disrupting peptide TATD5Ct (10 µM); control 0.60 10^−2 µm^2; unchanged (p = 0.097) [2] [µm^2],immobile fraction of SEP-γ2-GABAARs at excitatory synapses with the disrupting peptide TATD5Ct (10 µM); no change [2] [%],diffusion coefficient median of SEP-γ2-GABAARs at inhibitory synaptic sites with the disrupting peptide TATD5Ct (10 µM); control 1.81 10^−2 µm^2/s [3] [µm^2/s],explored area of SEP-γ2-GABAARs at inhibitory synapses with the disrupting peptide TATD5Ct (10 µM); control 0.30 10^−2 [3] [µm^2/s],"immobile fraction (D < 0.005 µm^2/s) of SEP-γ2-GABAARs at inhibitory synapses, single nanoparticle tracking, after the disrupting peptide TATD5Ct (10 µM, 10 min); control 33% [3] [%]",diffusion coefficient median of extrasynaptic SEP-γ2-GABAARs after incubation with the disrupting peptide TATD5Ct (10 µM); control 4.11 10^−2 µm^2/s [4] [µm^2/s],explored area of extrasynaptic SEP-γ2-GABAARs with the disrupting peptide TATD5Ct (10 µM); control 1.24 10^−2 µm^2 [4] [µm^2],immobile fraction of extrasynaptic SEP-γ2-GABAARs with the disrupting peptide TATD5Ct (10 µM); control 25% [4] [%]
dopamine D5 receptor fused to the yellow fluorescent protein (YFP) (from UniProt P25115 1-475),0.103,0.0345,15,,,,,,,,,
dopamine D5 receptor (endogenous) (from UniProt P25115 1-475),,,,0.0412,0.0073,20,0.0578,0.0133,9,0.075,0.0245,17
